In publication PMC3547825 (PLoS Computational Biology, 2013):

Biological target: the molecule itself

B1: wild-type α-hemolysin (WT-HL) (natural protein)
chain: ADSDINIKTGTTDIGSNTTVKTGDLVTYDKENGMHKKVFYSFIDDKNHNKKLLVIRTKGTIAGQYRVYSEEGANKSGLAWPSAFKVQLQLPDNEVAQISDYYPRNSIDTKEYMSTLTYGFNGNVTGDDTGKIGGLIGANVSIGHTLKYVQPDFKTILESPTDKKVGWKVIFNNMVNQNWGPYDRDSWNPVYGNQLFMKTRNGSMKAADNFLDPNKASSLLSSGFSPDFATVITMDRKASKQQTNIDVIYERVRDDYQLHWTSTNWKGTNTKDKWIDRSSERYKIDWEKEEMTN
stoichiometry N: 7
